Here are results for two molecules from patent US20100229252, “MEGANUCLEASE VARIANTS CLEAVING A DNA TARGET SEQUENCE FROM THE HUMAN HEMOGLOBIN BETA GENE AND USES THEREOF” (CELLECTIS, published 2010).

Where a chain is given by its changes, count along the chain named.

Holding throughout (assay): cell_activity; CHO extrachromosomal LacZ assay
In series [1] the target is T1, I-CreI heterodimer HBB8.3_K3 / HBB8.4_D4 (Chlamydomonas reinhardtii, UniProt P05725;P05725 SEQ:1-167,SEQ:1-167).
T1 chain 1: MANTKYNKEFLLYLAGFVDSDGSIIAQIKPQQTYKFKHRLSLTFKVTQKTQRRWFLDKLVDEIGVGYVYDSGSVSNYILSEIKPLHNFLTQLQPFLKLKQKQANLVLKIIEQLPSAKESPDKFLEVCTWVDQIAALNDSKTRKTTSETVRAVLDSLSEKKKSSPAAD
T1 chain 2: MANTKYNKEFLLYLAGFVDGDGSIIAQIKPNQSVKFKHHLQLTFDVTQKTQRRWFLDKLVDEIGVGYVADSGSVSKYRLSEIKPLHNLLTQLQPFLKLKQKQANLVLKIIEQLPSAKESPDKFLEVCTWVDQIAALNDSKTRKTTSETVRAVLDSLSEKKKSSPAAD

The target of series [2] is T2, I-CreI heterodimer HBB8.3_A3 / HBB8.4_C4 (Chlamydomonas reinhardtii, UniProt P05725;P05725 SEQ:1-167,SEQ:1-167).
T2 chain 1: T1 chain 1 with S20G, K45Q, L59Q, Y69A, I78R, F88L
T2 chain 2: T1 chain 2 with G20S, H39R, L88F

Series [3] addresses T3, I-CreI heterodimer HBB8.3_B3 / HBB8.4_C4 (Chlamydomonas reinhardtii, UniProt P05725;P05725 SEQ:1-167,SEQ:1-167).
T3 chain 1: T1 chain 1 with S20G, I78Y, V106A, L153Q
T3 chain 2: T1 chain 2 with G20S, H39R, L88F

Series [4] has as its target T4, I-CreI heterodimer HBB8.3_J3 / HBB8.4_B4 (Chlamydomonas reinhardtii, UniProt P05725;P05725 SEQ:1-167,SEQ:1-167).
T4 chain 1: T1 chain 1 with S20G, K45Q, Y69A, I78R, F88L
T4 chain 2: T1 chain 2 with G20S, V34T, H39R, L88F

Series [5] concerns the target T5, I-CreI heterodimer HBB8.3_J3 / HBB8.4_C4 (Chlamydomonas reinhardtii, UniProt P05725;P05725 SEQ:1-167,SEQ:1-167).
T5 chain 1: T1 chain 1 with S20G, K45Q, Y69A, I78R, F88L
T5 chain 2: T1 chain 2 with G20S, H39R, L88F

The target of series [6] is T6, I-CreI heterodimer HBB8.3_C3 / HBB8.4_D4 (Chlamydomonas reinhardtii, UniProt P05725;P05725 SEQ:1-167,SEQ:1-167).
T6 chain 1: T1 chain 1 with S20G, Q31N, T33S, Y34G, R39K, I78Y, I133V
T6 chain 2: T1 chain 2

The target in series [7] is T7, I-CreI heterodimer HBB8.3_H3 / HBB8.4_D4 (Chlamydomonas reinhardtii, UniProt P05725;P05725 SEQ:1-167,SEQ:1-167).
T7 chain 1: T1 chain 1 with Q31N, T33S, Y34G, R39K, I78Y, I133V
T7 chain 2: T1 chain 2

Series [8] has as its target T8, I-CreI heterodimer HBB8.3_B3 / HBB8.4_B4 (Chlamydomonas reinhardtii, UniProt P05725;P05725 SEQ:1-167,SEQ:1-167).
T8 chain 1: T1 chain 1 with S20G, I78Y, V106A, L153Q
T8 chain 2: T1 chain 2 with G20S, V34T, H39R, L88F

The target of series [9] is T9, I-CreI heterodimer HBB8.3_D3 / HBB8.4_A4 (Chlamydomonas reinhardtii, UniProt P05725;P05725 SEQ:1-167,SEQ:1-167).
T9 chain 1: T1 chain 1 with Q31N, T33S, Y34G, R39K, I78Y, E118G
T9 chain 2: T1 chain 2 with Q132R

B1: HBB8 (dsDNA)
DNA 1: CTGACTCCTGTGGAGAAGTCTG
DNA 2: CAGACTTCTCCACAGGAGTCAG
On to B1, for which the activity in [1] worked out at 1.93 absorbance units; in [2] it was 1.56 absorbance units; in series [3], 2.32 absorbance units; in series [4], 2.47 absorbance units; in series [5], 2.21 absorbance units; in series [6], 0.72 absorbance units. For the same molecule, the activity in [7] came to 2.1 absorbance units; in series [8] it was 2.29 absorbance units; in series [9], 1.53 absorbance units.

B2: HBB6 (dsDNA)
DNA 1: CTGACTCCTGAGGAGAAGTCTG
DNA 2: CAGACTTCTCCTCAGGAGTCAG
B2: the activity in series [1] worked out at 1.63 absorbance units; in [2] it was 0.68 absorbance units; in series [3], 1.86 absorbance units; in series [4] it was 1.75 absorbance units; in series [5] it was 1.88 absorbance units; in series [6] it was 0.37 absorbance units. In addition, the activity in [7] was 1.84 absorbance units; in series [8], 1.21 absorbance units; in [9], 1.23 absorbance units.
